From the DeepSol protein solubility set come the findings set out here.

This series is described as follows: soluble on expression in E. coli; label from the status in PepcDB or PDB records.
Take “MSAISPFVAIRRDLHQIPELGFQELKTQQYLLRYIQSLPQERLQVRTWKTGIFVKVNGTSPRKTIGYRADMDGLPIREETGLPYRSKHEGHMHACGHDVHMSIALGVLTHFAHHPLEDDLLFVFQPAEEGPGGAKPMLESDIMREWKPDMIVALHIAPEYPVGTIATKEGLLFANTSELFIDLKGRGGHAAFPHLANDMVVAACALVTQLQSIVARNVDPLDSAVITIGKIAGGTVQNVIAEHARLEGTIRTLSTAAMQKVKRRIEAIVHGIEVAYECETSIDYGAMYHEVYNDPDLTAEFMKFAKAHGGVNVIRCKEAMTGEDFGYMLAEIPGFMFWLGVDSPYGLHHAKLAPNEEAIDRAIAFLIDYFSWKGNAE”: the “soluble on expression in E. coli” value is listed as “not soluble”.

Take “MSADTLQIAYSPCPNDTFVFDALAHGRVPGAPALDVTFADIDITNGMAERGELDVLKVSYAVLPYVLDDWALLPCGGALGRGCGPLVLTREADADLRGRTVAVPSETSTAYLLFRLWAADTVPGGVGEIVVMPFHEIMPAVRDGKVDAGLVIHEARFTYQNYGLHKLADMGEHWEHTTGLPIPLGAIIARRSLGAPALTRLADAVRASVRAAWDDPEASRPYVMEHAQEMDPAVADQHIGLYVNEFTADLGEDGYAAIRGLLTRAAAEGLVPALGPDALAFP”: the “soluble on expression in E. coli” value was “not soluble”.

As for “MGSDKIHHHHHHMSDVMNNSQIATQDNNLINELKTLIASAKQQAQVQVNAQMTLLYWQLGHRLQEHLLSNQRADYAKQIVKQVAQQLTYEYGKGFNEKSLRKMMQFYQAFPQQEIVSTLSRQLSWSHFVELLPIKAPVAREFYLQMAINDRWSVRTLRNRIDSMLFERTAVSKKPDELIKLELAQLENKQLSANMILKDPYMLDFLGVQDHYFEKDLEDAILRDLQQFLLELGSGFSFIGRQHRVQIGYYDFYIDLLFYNRKLKRLVAIDLKLGNFKAAYKGQMELYLRYLAKYEQEADERPPLGIILCASKDQEQVELLELDKSGIHVAEYLTALPPKEVLQQKLHQAISQNQQRFLAVNALDKDAGIASDAEEK”, the “soluble on expression in E. coli” value is given as “not soluble”.

With “MGSDKIHHHHHHMNHTSADTTLRAFAQLIAEGTCLPAEERAPGQLKTGVDLGTANIVLSVVDANNRPVTGAMFPSTVVRDGIVVDYVGAVSVVRRLKAELEDRLGCPLTFAGTAIPPGILAGNVKAIANVVEAAGFEVADVSDEPTAASRVLGLREGAVVDVGGGTTGISILKNGEVVFTDDEATGGTHMTLVLAGAHGVSFEEAEAMKKDTAAARDVFAVVQPVVEKMASIVKRCLKGYDVETVYVVGGACTFDQFEQVFRKEIGLTIVKPAEPLLVTPLGIAMYGATPGEGAL”, the “soluble on expression in E. coli” value was “not soluble”.

Regarding “MGSDKIHHHHHHMSVLVVGMSHRSAPVALLEKLSMDDGVRTNTVSDLVARPSLAEAMIVSTCNRLEVYAMTSSFHTGVNDVVEVLHDMSGVDMEELRGYLYVRYADAAAEHMMEVTSGLDSMVVGEQQIIGQVRTAYHSATEAGTVGPALHGLVQASLHTGKRVHTETDIDDAGASMVSFACDEALAQMSATNFAGCRALVLGAGAMASLAATHLGRLGIEHITVANRTFERAQRLADHAVEAGVAASAIEFERRMDVLCDVDVVVSATGANTFTIEAANIPAAHGDLMMIDLSLPRDISDDVAEVPGVHLVNIEKLRDVASSGEAKDHAAQRIVAEELEAYTSAQRIRDVAPAVAALRRHASSLIDSELARLSTRVPSMDEDDFSEVQRTVRRVVDKLLHQPTVRVKELAAQSGTVSYDTAIQELFGLAVEATPVAVNVDELPERINKR”, the “soluble on expression in E. coli” value is “not soluble”.

Regarding “MSQPLNVAVVGATGSVGEALVGLLDERDFPLHRLHLLASAESAGQRMGFAESSLRVGDVDSFDFSSVGLAFFAAAAEVSRAHAERARAAGCSVIDLSGALEPSVAPPVMVSVNAERLASQAAPFLLSSPCAVAAELCEVLAPLLATLDCRQLNLTACLSVSSLGREGVKELARQTAELLNARPLEPRLFDRQIAFNLLAQVGAVDAEGHSAIERRIFAEVQALLGERIGPLNVTCIQAPVFFGDSLSVTLQCAEPVDLAAVTRVLDATKGIEWVGEGDYPTVVGDALGQDETYVGRVRAGQADPCQVNLWIVSDNVRKGAALNAVLLGELLIKHYL”, the “soluble on expression in E. coli” value is “soluble”.

Regarding “MGSDKIHHHHHHMKFFKSLLIAPAALGLMAPVAVNADTAFSPTTKLKSSVNFTVGSNADSADGDELHSSYEMKWKATTSFTGEDKLVGKFEIGSGKTLAGGIDPQSSKGGGKTPTLTDLYYQFPLAEDLTISIGPKMDGDQGLAGTTSVYGEPVLLAADGYYALAGEGGTGATIAYAGDNGWNASLNMTAADGDDASKGIFGDDTEDYVTAQLGFDGDGFGGTFTYSDSSDTYTAYGIGAYFQPESIPVTVSAYFDSMDPEKGEEDENWVVGVEADAGPGTLGVGVGTQKGTDEKLTYEAWYDYKIADGVKITPMIWTSEDAGVGGEDLSGAALNVKYKF”, the “soluble on expression in E. coli” value is reported as “not soluble”.

Regarding “MGSDKIHHHHHHMYEFNDTIRGTPKVTFNLKTTIGGKVLEDELNNGFGTFRTLTVSGRDVVDLEHQTTSVLGRNGEYFHNATVEVRKLEIKAKISGKDNKSMRLQYEKLNKLIVSHNQVFLSFSDEPDRNYLGIFKSKDVPEEVSNEQIIGLTFICYNPFKMSDVKTKKGTSIQNGGLFQTKPIITLNLSSPTKEIKLLHVESQKYIRLTGTYTTDEIKIDMATGKITQNGRNILGDLDMINSRYFELLPGNNTLQCANAAITAEFREVYL”, the “soluble on expression in E. coli” value is reported as “not soluble”.

In the case of “MTNLVDKAAHSFATQNVVFQTLATASGKLVGVVTLNVEKALNALDLDMVRAMTVQLNLWKKDPLIACVVLDGSGEKAFCAGGDVRALYHASVAAKGQVTEVAKVFFEEEYRLDYLLHTYGKPVLVWGDGIVMGGGLGLMAGASHKVVTETSRIAMPEVTIGLYPDVGGSYFLNRMPGKMGLFLGLTAYHMNAADACYVGLADHYLNRDDKELMFDAMATLDWSDSPALNHQRLDTMINELSNQVDIPKGDSVLAESQEMIDRLMAGSLTDIVTRMSTLSTDEAWLSKACATMLAGSPISWHLAYIQTQLGTKLSLAQCFKWELTVSVNVCAKGDFCEGVRALLIDKDKQPKWQFADVQSVPNSVIEDILTSPWGEEHPLSQLS”, the “soluble on expression in E. coli” value is “soluble”.

For the sequence “MGTSVTPNIFDFLIKIDPFDKLPEPVVESIANSVKVKYLVRGETIGFSALCDQRYLYIIRTGAIEQRTPNGELRARLGQDDQFGFTFLDPLENAEDGYQAEAIEDSLLYLIPHSELKLVSEEHPEFADYFAAQANVRLSSAVKYVCRKEEKGLFFRTVGEIASENIAIVDVNDSIRSVAQTMCGKQRSSCAVVMKEGEIIGLVTDRDMTKSVVAQDMDTNQPIADVMTPNPVLIEDDAKVIQAISLMLQYNIRCLPVVHGKQVKGLLTTTHLVHNHRTQSLFLIEKIKYASSLNALAALKEERQTIFQALVESGVSAEIQGRVMSMIMDAFTRRIIQLNEELLGPPPCDYAWLVAGSHARNEVHMLSDQDSAIVLSDDATEEHKLYFTHLAMRVCNGLAACGYPLCDGKYMAASPKWCQPIRRWKEYYQKWVASPEYNKLLSISVFLEVRAIHGNREFVDQIQQHLHDCIQKSPSFIPALVRDAIDTQPPLGIFNNLVLEKGGENSNTLNIKKYALNLIIDLARIFSLAAGGSLTGTEERFRYAAQHGTLSKDSVENIIGAYRFITQVRFRHQLNAILAGTTPDNHIAPDDFSSFERKHLKDAFKIISELQDVAKLKFVKGA”, the “soluble on expression in E. coli” value was “not soluble”.

Take “MTTKYAALLRGINVGGSRKVPMADLRALLTSLGHDAVRTHLQSGQAVFAAAHGDEDSLAAELAEAIGERFGFPVDVIVRDHAYLRSVVEACPFPAAELEARQLHVTYFSAPVEADRFAAIDAPAFRPEEFRLGDRALYLYAPDGLGRSKLAEALARPRVNKGLVATSRNWNTVTKLVELTGP”: the “soluble on expression in E. coli” value was “not soluble”.

On to “MTVTAPNALNFECETGNYHTFCPISCVAWLYQKIEDSFFLVIGTKTCGYFLQNAMGVMIFAEPRYAMAELEEGDISAQLNDYEELKRLCLEIKRDRNPSVIVWIGTCTTEIIKMDLEGLAPKLEAEIGIPIVVARANGLDYAFTQGEDTVLAAMAARCPTSTAISDPEERNPIQRLLNFGKKKEEVQAQSSQYHPHPPLVLFGSLPDPVVTQLTLELKKQGIKVSGWLPAKRYTELPVIDEGYYVAGVNPFLSRTATTLIRRRKCQLITAPFPIGPDGTRTWIEQICATFGIQPQGLAEREAETWQKLSDYLELVRGKSVFFMGDNLLEISLARFLIRCGMRVLEIGIPYMDKRYQAAELALLSQTCAEMGHPLPTIVEKPDNYNQLQRIKALQPDLVITGMAHANPLEARGISTKWSVEFTFAQIHGFGNARDILELVTRPLRRNQALAGLGWQKLVAH”, for which the “soluble on expression in E. coli” value is given as “soluble”.

In the case of “MGSDKIHHHHHHMSIKSGFVALAGKPNVGKSTFINAVMGRKVVIVSDKPQTTRNRINCIYTDKDSQIIFVDTPGIHKPLHRLGEYMVKAAVQALKGVDLVLFMLDAADGFTKTDEHVAKIVNDSGTKTIIAVNKIDVAGEEKAKAVGELAKSMVENVVSVHYISALKGEGVFEVLEKIKEELPEGPQYYPEDMVTDRPLSFMAAEIIREKIFHLTRQEVPHSTAVVIEEIKDRPNGVLYIRANIYVERDSQKGILIGKNGSMIKKIGTLAREELEFLVGRKVYLDLNVKVKEKWREKDFIILQEIGLKDDIK”, the “soluble on expression in E. coli” value is on record as “not soluble”.

For “MADFKVLSSQDIMWALHELKGHYAITRKDFESHQHMENLTSQDEVPRDTRPFLMPLKNGRSYHQKPVEKGKREKK”, the “soluble on expression in E. coli” value is “not soluble”.

In the case of “MSLGSRNGEKDWENASTTSSVASGTEYTGPKLYKEPSAKSNKHIIQNALAHCCLAGKVNEGQKKKILEEMEKSDANNFLILFRDSGCQFRSLYTYCPETEEINKLTGIGPKSITKKMIEGLYKYNSDRKQFSHIPAKTLSASVDAITIHSHLWQTKRPVTPKKLLPTKEGHHHHHH”, the “soluble on expression in E. coli” value is “soluble”.

With “MWPRNDVHMDDGSMTPEDQEPVTDNDMEYNDNGEESSYSNGSSSSYNADKLSSSRPLQHKLDLSASPSRNNDLNPRVEHLIALFKDLSSAEQMDAFTRLLQESNMTNIRQLRAIIEPHFQRDFLSCLPVELGMKILHNLTGYDLLKVAQVSKNWKLISEIDKIWKSLGVEEFKHHPDPTDRVTGAWQGTAIAAGVTIPDHIQPCDLNVHRFLKLQKFGDIFERAADKSRYLRADKIEKNWNANPIMGSAVLRGHEDHVITCMQIHDDVLVTGSDDNTLKVWCIDKGEVMYTLVGHTGGVWTSQISQCGRYIVSGSTDRTVKVWSTVDGSLLHTLQGHTSTVRCMAMAGSILVTGSRDTTLRVWDVESGRHLATLHGHHAAVRCVQFDGTTVVSGGYDFTVKIWNAHTGRCIRTLTGHNNRVYSLLFESERSIVCSGSLDTSIRVWDFTRPEGQECVALLQGHTSLTSGMQLRGNILVSCNADSHVRVWDIHEGTCVHMLSGHRSAITSLQWFGRNMVATSSDDGTVKLWDIERGALIRDLVTLDSGGNGGCIWRLCSTSTMLACAVGSRNNTEETKVILLDFDAVYP”, the “soluble on expression in E. coli” value is recorded as “not soluble”.

For “MGSDKIHHHHHHMTAPMNVIDDYYVSLGKIGILNYRTMDESGENAFLRKYLPSLSSPTILDVGANIGGYSKAILRESPSARVYAFEPHPITFGNLTKDTAEDRFHALNIGIGAKEETLDFYDYRDEDGSSHASLYKEVIEDIHHRPSTSHRVSIRRLDDVCAELGLPHIALLKIDTEGHELAALQGAERLIRSGAIDVIQFEFNEMNVISRCFFKDFWDFLPDYRFFRLLPHGSIEIKTYIPSFCEIFAFQNIVCVKKDLPEFF”, the “soluble on expression in E. coli” value is reported as “not soluble”.

In the case of “MEFRKEVEVAKILVGGKVEENVVEIRYDPLTLQTSRILKKTIPMQSGDFQEEIDSTRSWCPFCPERIEQMVSRDPEIMEGELWKRGEAVLFSNLTPYSKYSLVLRLTEEHYVPVSEFKSQHFFDAFKLIQEYVKKVPEGKYYVTIGMNYLKPSGSSIMHPHIQVMISEVSTDYFARLDWSALEFKESNGVDYWKKLAEVEKGGERYIGSTDKTEWVAAFAPKGFFHFTGIPEEREFMQMSDEQLKGIAEGIAKILRYYGRKNLNAFNFSMFCADRIGDHFRTNINIVARTPFAKYYWCDVFYPKMFHDESVVFFVPEEYAKEIREIWSEL”, the “soluble on expression in E. coli” value is reported as “not soluble”.
